Earlier results on one substance are cited in PMC5757840.

By Kd is commonly meant the free concentration of one partner at which half of the binding sites on the other are occupied at equilibrium, for simple one-to-one binding.

The target in this data set is SNARE complex (Rattus norvegicus) (UniProt P32851).
Sequence of UniProt P32851 (P32851 whole entry, chain 1 of 3): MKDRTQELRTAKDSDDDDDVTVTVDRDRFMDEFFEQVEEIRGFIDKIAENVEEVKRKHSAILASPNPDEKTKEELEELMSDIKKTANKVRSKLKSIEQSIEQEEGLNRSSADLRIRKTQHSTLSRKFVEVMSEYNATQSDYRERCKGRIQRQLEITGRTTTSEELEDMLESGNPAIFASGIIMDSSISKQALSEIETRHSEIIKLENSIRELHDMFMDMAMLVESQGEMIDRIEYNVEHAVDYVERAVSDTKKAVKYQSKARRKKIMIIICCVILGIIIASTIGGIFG
Sequence of UniProt P32851 (B2RAU4 whole entry, chain 2 of 3, further chain): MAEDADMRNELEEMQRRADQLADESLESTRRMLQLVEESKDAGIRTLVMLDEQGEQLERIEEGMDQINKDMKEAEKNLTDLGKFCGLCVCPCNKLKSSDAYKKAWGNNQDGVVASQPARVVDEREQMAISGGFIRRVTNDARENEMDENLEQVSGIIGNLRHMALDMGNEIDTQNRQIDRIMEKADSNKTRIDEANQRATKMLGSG
Sequence of UniProt P32851 (P63044 2-116, chain 3 of 3, further chain): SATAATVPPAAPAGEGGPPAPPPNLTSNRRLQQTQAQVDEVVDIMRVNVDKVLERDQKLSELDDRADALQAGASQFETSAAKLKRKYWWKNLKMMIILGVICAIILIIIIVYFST

As to Syt1 (from UniProt P21707), the Kd is 900 nM.
